The source of these data is publication PMC4601014 (Scientific Reports, 2015).

In this test the target is His/S-ΔIBB importin-α1 (mouse, residues 70–529), wild-type (mouse, UniProt P52293 70-529). Briefly: ELISA. To be noted: both partners purified.

B1: GST-NP ncNLS, wild-type (peptide)
chain: ASQGTKRSYEQMET
notes: also called GST-tagged ncNLS; not shown: GST, N-terminal, kept
Regarding B1, the affinity, expressed as Kd, was 1.7 µM.
